These are literature values, as cited in PMC3409362.

Read-outs that look alike come from different tables or passages of the source.

As usually defined, the Kd is the free concentration of one partner at which half of the binding sites on the other are occupied at equilibrium, for simple one-to-one binding.

Data set [1] addresses F-actin (Oryctolagus cuniculus) (UniProt P68135).
For data set [2] the target is unchanged. The source holds these as a separate data set.

As to “V-ATPase B1 subunit (from UniProt P15313)”, in data set [1], the Kd was 150 nM. Regarding “V-ATPase B2 subunit (from UniProt P21281)”, the Kd in data set [2] was 150 nM.
